# Where “and” joins values, the source holds several entries; their conditions need not be identical. Identical values can stand only once. Where no end group is shown, it is not given here. The star is where a group is joined. FITC = O=C1OC2(c3ccc(O)cc3Oc3cc(O)ccc32)c2ccc(NC(=S)*)cc21
# Legend:
# [1] = test system: circular skull defect of rabbits; experiment: In vivo bone regeneration of peptide-bound collagen membrane in circular skull defect; parameters: species or system New Zealand white rabbits; conditions: 8 mm circular skull defect, 4 weeks after transplantation; compared to membranes with SEQ ID NO: 1 or 9
# Source text: In still another example of the present invention, in order to examine the in vivo bone regeneration ability of the fusion peptide that binds to the collagen membrane and has the ability to regenerate bone tissue, each of the peptides of SEQ ID NOS: 1, 9 and 24 was bound to the collagen membrane, and then transplanted into the circular skull defect of rabbits, and the bone regeneration ability was examined. Specifically, a circular bone defect having a diameter of 8 mm was formed in the skull of anesthetized rabbits and covered with the collagen membrane, and the periosteum and the skin were doubly sutured. At 4 weeks after the transplantation, the animal was sacrificed, and the collected sample was fixed in a formalin solution. The tissue was embedded to prepare a sample having a thickness of 20 μm. The sample was stained with fuchsin and toluidine blue to prepare a nondemineralized sample. […] Each of the peptides of SEQ ID NOS: 1, 9 and 24, prepared in Example 1, was bound to a collagen membrane according to the method of Example 2, and then transplanted into the circular skull defect of rabbits, and the bone regeneration ability was examined. […]
# collagen membrane = experiment: Peptide release (elution) test from collagen membrane in PBS, HPLC; type: binding, porcine; conditions: for Release of the peptide from collagen membrane: eluate in PBS at 37° C.
# Description: In still another example of the present invention, in order to examine the collagen-binding ability of the fusion peptide that binds specifically to collagen, porcine sink-derived collagen was dissolved in 0.1M HCl at a concentration of 1%(w/v), the pH was neutralized, and the collagen solution was concentrated to 4% by evaporating the solvent. To prepare a membrane, the concentrated collagen solution was poured into a […] diameter dish and mixed, and to prepare a three-dimensional scaffold, the collagen solution was poured onto a 24-well plate for cell culture and mixed. Next, 1% glutaraldehyde or 1% glyceraldehyde was added to crosslink the collagen solution, which was then washed with distilled water and freeze-dried. The resulting membrane having a size of 1×1 cm and a thickness of 250 μm was wet with 10 mg of the fusion peptide of SEQ ID NO: 24 in 100 μl of DW, washed with PBS and freeze-dried. The collagen membrane having the peptide bound thereto was added to PBS and subjected to a peptide release teat at 37° C. After 7 days, 10 ml of the elution solvent added was completely removed, after which 10 ml of a fresh elution solvent was added to the collagen membrane which was then eluted at 37° C. for 4 weeks. After completion of the elution, the membrane was collected and the peptide content thereof was measured.
# 1 g of porcine skin-derived collagen was dissolved in 100 ml of 0.1M HCl at a concentration of 1%(w/v), and then the pH of the collagen solution was neutralized, and the solvent was evaporated to the collagen solution to 4%.
# In order to prepare a membrane, 8 ml of the concentrated collagen solution was poured in a […]-diameter dish and mixed, and in order to prepare a three-dimensional scaffold, 1 ml of the collagen solution was poured in a 24-well plate for cell culture and mixed. Then, 1% glutaraldehyde or 1% glyceraldehydes was added to crosslink the collagen solution, and the crosslinked collagen was washed with distilled water and freeze-dried (see FIG. 1).
# 0.038 g of the prepared membrane having a size of 1×1 cm and a thickness of 250 μm fall was wet with 10 mg of the fusion peptide of SEQ ID NO: 24 in 100 μl of deionized water (DW), allowed to stand at 4° C. for 8 hours, washed with PBS, and freeze-dried. The collagen membrane having the peptide bound thereto was added to 10 ml of PBS and subjected to a peptide release test at 37° C.
# After 7 days, 10 ml of the elution solvent added was completely removed, and then 10 ml of a fresh elution solvent was added to the collagen membrane which was then eluted at 37° C. for 4 weeks. After completion of the elution, the membrane was collected and the peptide content thereof was measured.
# 0.038 g of the membrane having the peptide bound thereto was precisely weighed, and 5 ml of mobile phase solvent A was added thereto, followed by sonication for 1 hour. Next, 5 ml of mobile phase solvent B was added to and mixed with the membrane solution, and then the mixture was centrifuged at 4500 rpm for 30 minutes. 1 ml of the supernatant was taken and filtered through a 0.22 millipore filter to obtain a sample solution.
# A peptide standard was dried in a desiccator (silica gel) for 5 hours, and about 10 mg of the dried peptide was dissolved in mobile phase solvent A. 10 ml of the solution was used as a standard solution. […]
# E. coli = experiment: Antibacterial test by agar diffusion method, inhibition diameter of peptide-bound collagen membrane; type: cell-based; conditions: for Antibacterial activity (inhibition diameter) of peptide-bound collagen membrane: incubated for 3 days on E. coli plate
# Description: In another example of the present invention, in order to examine the antibacterial activity of an antibacterial fusion peptide that binds specifically to collagen, a collagen membrane was prepared using each of the peptides of SEQ ID NO: 1, the peptide of SEQ ID NO: 26 and the peptide of SEQ ID NO: 29 in the same manner as described in Example 2. The prepared collagen membrane was washed in PBS for 1 hour and dried in air. To evaluate the antibacterial activity of the peptide, an antibacterial test was performed according to an agar diffusion method. Specifically, E. coli cells were cultured in TSB medium until the absorbance at 620 nm reached 1, and then the cells were harvested and used in the test. The harvested cells were diluted with PBS, and 10^5-10^7 bacterial cells per ml were plated on a TSA plate and incubated at 37° C for 24 hours. On the plate having the incubated bacterial cells thereon, a collagen membrane having each of the peptides of SEQ ID NOS: 1, 26 and 29 bound thereto was placed and incubated for 3 days. Then, the inhibition diameter against the growth of the bacterial cells was measured. […] Using each of the peptides of SEQ ID NOS: 1, 26 and 29, collagen membranes were prepared in the same manner as described in Example 2. Each of the prepared collagen membranes was allowed to stand in 10 ml of PBS for 1 hour and dried in air. To evaluate the antibacterial activity of the peptides, an antibacterial test was performed according to the agar diffusion method. Specifically, E. coli cells were cultured in TSB (tryptic soy broth) medium until the absorbance at 620 nm reached 1, and then the cells were harvested and used in the test. The harvested cells were diluted with PBS, and 10^5-10^7 bacterial cells per ml were plated on a TSA plate and incubated at 37° C. for 24 hours. On the plate having the incubated bacterial cells thereon, a collagen membrane having each of the peptides of SEQ ID NOS: 1, 26 and 29 bound thereto was placed and incubated for 3 days, and then the inhibition diameter against the bacterial cells was inhibited was measured.
# [2] = rabbit, in vivo
# Source text: In still another example of the present invention, in order to examine the in vivo stability of the fusion peptide that binds to collagen and has the ability to regenerate bone tissue, the peptide of SEQ ID NO: 24 labeled with FITC was bound to the collagen membrane which was then transplanted into a rabbit skull defect. […] Before and at days 1, 3, 7, 14, 21 and 28 after the membrane bound to the peptide of SEQ ID NO: 24 labeled with FITC was transplanted into the rabbit skull defect, the blood was collected and whether the peptide was released into the systemic blood was measured using a fluorometer. […] The peptide of SEQ ID NO: 24 labeled with FITC was bound to a collagen membrane in the same manner as described in Example 2. The collagen membrane was transplanted into the skull defect of a rabbit, and after 4 weeks, the membrane transplanted into the skull defect was observed by confocal microscopy (Olympus, Japan). Before and at days 1, 3, 7, 14, 21 and 28 after 10 mg of the peptide of SEQ ID NO: 24 labeled with FITC was transplanted into the rabbit skull defect, the blood was collected and whether the peptide was released into the systemic blood was measured using a fluorometer.
# [3] = target: collagen membrane prepared from porcine skin-derived collagen (porcine); experiment: release test in PBS at 37 C, HPLC of the eluate
# Chain of collagen membrane prepared from porcine skin-derived collagen (porcine) (P12675 whole entry): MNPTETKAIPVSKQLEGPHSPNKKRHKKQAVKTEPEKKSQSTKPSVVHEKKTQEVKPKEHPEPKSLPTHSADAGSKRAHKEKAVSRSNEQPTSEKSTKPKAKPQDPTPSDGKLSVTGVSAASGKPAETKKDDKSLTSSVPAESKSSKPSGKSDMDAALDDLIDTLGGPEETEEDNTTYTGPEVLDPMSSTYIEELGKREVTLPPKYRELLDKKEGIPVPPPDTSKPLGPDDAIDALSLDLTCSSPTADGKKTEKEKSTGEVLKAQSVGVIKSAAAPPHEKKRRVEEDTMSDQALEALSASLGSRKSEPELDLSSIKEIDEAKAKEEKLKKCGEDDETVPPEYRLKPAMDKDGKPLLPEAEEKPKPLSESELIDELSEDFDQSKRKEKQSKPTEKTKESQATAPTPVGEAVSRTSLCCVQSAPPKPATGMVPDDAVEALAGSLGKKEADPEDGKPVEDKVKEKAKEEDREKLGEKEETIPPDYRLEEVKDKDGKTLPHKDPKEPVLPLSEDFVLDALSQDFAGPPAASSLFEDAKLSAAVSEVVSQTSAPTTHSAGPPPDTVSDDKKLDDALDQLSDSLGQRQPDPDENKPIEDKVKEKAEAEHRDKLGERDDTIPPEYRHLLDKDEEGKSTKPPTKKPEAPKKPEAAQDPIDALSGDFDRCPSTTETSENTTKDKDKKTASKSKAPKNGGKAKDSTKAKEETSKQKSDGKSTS
# [4] = target: collagen membrane prepared from porcine skin-derived collagen (porcine); experiment: HPLC of peptide extracted from the membrane after 4 weeks of elution in PBS at 37 C
# [5] = after washing in PBS for 1 hour
molecule,measurement,setting,value
GLRSKSKKFRRPDIQYPDARHPLYVDFSDVGWNDWIVA (Collagen Binding Peptide) [SEQ ID NO: 24],Bone regeneration ability of the collagen membrane having the peptide bound,[1],increased
same,Peak of the peptide in the eluate,"collagen membrane; 4 week elution test, retention time of 13 minutes, Lot Nos. 1, 2 and 3",not observed
same,Content of the peptide remaining on collagen membrane,"collagen membrane; after completion of the 4 week elution at 37° C., Lot Nos. 1-3, 10 mg peptide loaded",9.2 mg and 9.43 mg and 9.68 mg and 9.20 mg
same,Release of the peptide from collagen membrane,"collagen membrane; day 7, Lot Nos. 1-3, 10 mg peptide loaded",0 mg
same,Release of the peptide from collagen membrane,"collagen membrane; day 14, Lot Nos. 1-3, 10 mg peptide loaded",0 mg
same,Release of the peptide from collagen membrane,"collagen membrane; day 28, Lot Nos. 1-3, 10 mg peptide loaded",0 mg
GLRSKSKKFRRPDIQYPDAGKCSTRGRKCCRRKK (Collagen Binding Peptide; hBD3-3) [SEQ ID NO: 29],Antibacterial activity (inhibition diameter) of peptide-bound collagen membrane,E. coli; [5],maintained its antibacterial activity
"GKCSTRGRKCCRRKK (hBD3-3) [SEQ ID NO: 26, antibacterial peptide derived from human beta-defensin-3]",Decrease of antibacterial activity after washing,E. coli; after washing in PBS for 1 hour versus before washing,about 50%
same,Antibacterial activity (inhibition diameter) of peptide-bound collagen membrane,E. coli; before washing,highest antibacterial activity
SEQ ID NO: 24 labeled with FITC: FITC (fluorescein isothiocyanate) bound to the N-terminus of the peptide of SEQ ID NO: 24 ({FITC}-GLRSKSKKFRRPDIQYPDARHPLYVDFSDVGWNDWIVA),Spread of the peptide to the surrounding tissue (confocal microscopy),[2],did not spread to the surrounding tissue
GLRSKSKKFRRPDIQYPDA (Collagen Binding Peptide) [SEQ ID NO: 1],Antibacterial activity (inhibition diameter) of peptide-bound collagen membrane,E. coli; [5],no antibacterial activity
same,Antibacterial activity (inhibition diameter) of peptide-bound collagen membrane,E. coli; before washing,no antibacterial activity
GLRSKSKKFRRPDIQYPDARHPLYVDFSDVGWNDWIVA,peptide released from collagen membrane,[3],0 mg
same,content of the peptide remaining on collagen membrane (of 10 mg applied),[4],9.2 mg and 9.43 mg and 9.68 mg
